± gives the half width of the 95% confidence interval.
Experiments:
[1] = folding stability dG unfold from chymotrypsin proteolysis; higher = more stable
Description: (§1)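 Folding stability of de novo designed mini-proteins (<80 aa, no Cys; designed by TrROS, TrMRF, ProteinMPNN and the joint model) was measured by cDNA display proteolysis with trypsin and chymotrypsin. Each protease was used at 11 concentrations in a threefold dilution series plus a no-protease condition. K50 was inferred by Bayesian fitting of sequencing counts, and dG unfold was derived against a sequence-predicted unfolded-state K50 (Tsuboyama et al. method). Sequences shown include variable-length N-terminal GS-type padding (SAGGSAGG...) inside a display construct carrying a PA tag. Rows were kept only if the AF2 dimer inter-PAE was >15, to exclude likely homo-oligomers.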

[2] = folding stability dG unfold (combined trypsin and chymotrypsin); higher = more stable
Description: as §1

Row | Sequence | folding stability dG unfold [1] [kcal/mol] | folding stability dG unfold [2] [kcal/mol]
1 | SAGGSMKVEYDESTGVTTITLPDGSTITFPAEDTGLTVEASLEDDTLTITVKDPNNPVPLETRTIPSSSAGG [r13_938_JUSTAS] | 0.935 ± 0.036 | 0.393 ± 0.18
2 | SAGGSAGGSAGGPIRIKNIENVNPDDGMFTVDVEFPDGKNHTYMIPPDQLEEPGDEIEIPSAGGSAGGSAGG [r7_117_TrROS] | -0.696 ± 0.54 | < -1
3 | SAGGMILIERDGRERVLEKAREAVEAEAARARAGDVEDAVLLVDLRVVDPVTGEWEELPVLARVPPASAGGS [r8_163_TrMRF] | 0.461 ± 0.076 | -0.0473 ± 0.11
4 | SAGGKSKTIPIQPGDIRKVRDQLKELPDEGDNVRIHNPDNGKEREMDPDQLDDNVEKNGEPPTIHVRSAGGS [r16_263_TrROS] | -0.528 ± 0.072 | < -1
5 | SAGGSAMKVEKEGDKVTIIVNAPESLNDKKVLTEKIKKAIEENKNKEVEIIAPPKYKPYAEETIKNSAGGSA [r15_89_JUSTAS] | -0.217 ± 0.52 | -0.558 ± 0.39
6 | SAGGSAGGSAGGPRVGVVRELPDDSRVALLEIEETLTSPGPDGTPRSRPFRAVFVVPLGSAGGSAGGSAGGS [r10_718_TrMRF] | 0.69 ± 0.26 | -0.16 ± 0.18
7 | SAGGSAGGSEGFVLRVRRYRRRPDDRVRVPVSEAELEVLPELADAVARALREASPEVEVELRPSAGGSAGGS [r12_342_TrMRF] | 0.0982 ± 0.27 | < -1
8 | SAGGSAGGGPDLKVTDIEFDPETGEIRIRTEAGGKLVAEVTIKGAPPVPVYPDKDGNWYPAGAKSAGGSAGG [r6_832_TrMRF] | 0.986 ± 0.062 | 0.517 ± 0.12
9 | SAMKTYTFEFTLTVPPDTPLEEVKAKVKEKVKAELKKLGIPLPETAKIEIKKVKEEGNKIYFKVTVTNKSAG [r14_735_JUSTAS] | 4.06 ± 0.057 | 4.16 ± 0.14
10 | SSAEEIARRLAEELNLDRVEVRVERLRLEPAEAPEEVRVVRPAPPPPPVTEEERRRRPEERRRRLSEEELSA [r9_724_TrROS_Hall] | -0.262 ± 0.32 | < -1
11 | SAGGSAGGSAGGPIKIKHNDGVEITIPADNVRSVDTNPGPGYIKITFPGNGQEFQIPIDSAGGSAGGSAGGS [r10_200_TrROS] | 0.00978 ± 0.031 | -0.306 ± 0.12
12 | SAGDYDVEKDPDGYRVEHKNGDKRYVPPVPPPIPVVMIPIKDPEDLDEFANELGLNITDISDDWITMPASAG [r5_328_TrROS] | 0.422 ± 0.13 | -0.158 ± 0.27
13 | SASLTPVGPGPDSVVTADPSTGKLYRLEPADGRLTVTTTTFAPGPAAPAPTTTTLPLSPEEAAALRALLSAG [r14_245_JUSTAS] | -0.304 ± 0.26 | < -1
14 | SAGKTIYIQGPLDELRKLPEIKEVEKTGNHWTLELPNVPIHIEIEPPPPVPVVPPEMPKEQMKEYMKKMSAG [r5_2_TrROS] | 0.646 ± 0.32 | 0.316 ± 0.37
15 | SAGGSAGGSAMNVTTETRTDPVTGNTTTTTTYTDTGEVVTTTTTTPPETTTTTTTTTSLTKSAGGSAGGSAG [r3_126_JUSTAS] | 0.982 ± 0.07 | 0.524 ± 0.2
16 | SAGGSAGGSASVGLLSVSTTPSGPGTTVTATTALPDGTVRTETRTEAGDGTATATTVTPLAASAGGSAGGSA [r18_79_JUSTAS] | 0.271 ± 0.069 | -0.295 ± 0.15
17 | SAGGLVREAAAEAGATGVDIREEVPDPNGGTVVTVLPRPGLSPEEAAAVRARIEAAIAEREPGATVVLESAG [r5_101_JUSTAS] | 0.161 ± 0.029 | -0.142 ± 0.11
18 | SAGGAPVHLDTTATTIEPLPTGGPVLRVETRFPDGSTRTGDFASREELLARLEASPDAATIRLAAVASAGGS [r16_757_JUSTAS] | 0.896 ± 0.056 | 0.203 ± 0.096
19 | SGRIKDVIMERDDNGGGNIMIMKLGNGEMEHIPPGEKLEIPLPPDDTLYLMVFDPNDGEPIETEEIKVDDSA [r9_209_TrROS] | -0.367 ± 0.35 | < -1
20 | SAGGSAGGSAGGGPPLPLRVEREEKVEKTPDDRVLIKRKVTVELPDRPLSEEESIEILLESAGGSAGGSAGG [r7_293_JUSTAS] | 0.146 ± 0.2 | -0.415 ± 0.25
21 | SAGGSAGGSAGGDVLLFVDESTGLADARALAEALGLKDVVIVPVPPAKPVVLNADGSPTSAGGSAGGSAGGS [r10_1083_TrMRF] | 0.63 ± 0.052 | -0.0616 ± 0.1
22 | SAGGSAGGSAGGMVKTTTQVSIDPNSDYRYTTTTTTVVDANGKPLATQTTLTVTKLAGTSSAGGSAGGSAGG [r7_616_JUSTAS] | -0.125 ± 0.34 | -0.516 ± 0.42
23 | SAGGKKEYKILITGKSIPSDGIVYLPNPNKVNIKSNNNYTYKTIPITIIADNNPEKAKKIAKELGLGSAGGS [r16_467_TrMRF] | 0.232 ± 0.34 | < -1
24 | SAGGSDPVSVSTEGGNTYVTVGDTPVLRLSKGKPEPPVLVTLPNGEVIEMPRSEALARDPSTIEFTPGSAGG [r13_802_JUSTAS] | 0.368 ± 0.042 | -0.118 ± 0.12

Row | Sequence | folding stability dG unfold [1] [kcal/mol] | folding stability dG unfold [2] [kcal/mol]
25 | SAGGSAGGSAGGPLPVTVTVLERTHYPEEGLYTVKTEGGTVITLPPELIDKHPPGSTVLLSAGGSAGGSAGG [r11_124_JUSTAS] | -0.736 ± 0.82 | < -1
26 | SAGGSAGGSAGGMRTFPSESLETLPENGLRKKTLTVTYVPPDNPERSYVETEVEIIPSEVSAGGSAGGSAGG [r17_241_JUSTAS] | -1.03 ± 0.34 | < -1
27 | SAGGSAGSHNQSPDGITLDAPLSSEEEIEALVAEVKAAAPPTYTVTVERTRSPSTLSVDVIVTAAPSAGGSA [r15_80_JUSTAS] | -0.579 ± 0.19 | -0.895 ± 0.97
28 | SAGGSAGGSAGGSEEKPIPIKVKIWKPNPGELVEEKEYLIPSNGSAEEIKKAFPNAEISSAGGSAGGSAGGS [r4_187_TrMRF] | 0.689 ± 0.15 | 0.12 ± 0.3
29 | SAAKPVVIEVGFDGKPVTVVVYPNPGRVRAYVPATNAVSEATVGEDGEVNLLLYNPADGKPLPANITVPSAG [r14_656_TrMRF] | -0.973 ± 0.39 | < -1
30 | SAGGSAGGEETLRVTEITDVEKPDNGPRIKFPIEHDGKKKPIDINVPPDDLKPGDTIPLEEILKSAGGSAGG [r6_585_TrROS] | 0.847 ± 0.072 | 0.222 ± 0.15
31 | SAGGGSKVIKVEYEKKDGGKVFIDDITDPGDSVEASIFNPKTGVKIPLPFDKLEELEDFIKEFVDKYSAGGS [r16_736_TrMRF] | -0.154 ± 0.32 | < -1
32 | SAGGSAGGSAGGSLVSTSPLPSSSTLVTEKGPSPEVTVTVVTVKPGGSRSVTTLPVSESSAGGSAGGSAGGS [r10_140_JUSTAS] | 0.474 ± 0.057 | -0.143 ± 0.12
33 | SAGVEPTPDGKWRIEINPEEGHIRVRMKNGEPHEIPFPEGSLDDFADEIAEKMGFPPDKPFKIDEIEIWSAG [r5_923_TrROS] | -0.0363 ± 0.21 | -0.273 ± 0.19
34 | SAGGSAGGSGSSVERSPSGEVVTTTPTAGGTLRTVHDPSGTRTLTDVASGKVLATYTPAVPVASAGGSAGGS [r12_235_JUSTAS] | -0.638 ± 0.31 | < -1
35 | SAGGSAGGSAAGFTAPVVQVRTENGKIYIDVKNSSVSLTVPENAEITPLESEVVKITPLPAPSAGGSAGGSA [r18_468_JUSTAS] | 0.542 ± 0.1 | 0.00621 ± 0.22
36 | SAGGSAGGSALPPGEPVEFPWRIKMGGEEHDVKRTVYRDPDGNVKLNIEIPMPPGNFEIEPVSAGGSAGGSA [r18_428_TrROS] | 0.206 ± 0.22 | -0.451 ± 0.4
37 | SGGMTPEQMIRHVLREARANNPGKKIEISWNSIQKNFPHPMSPEEIKKELKEEDGIKDVTIQPIPPNDPFSA [r9_738_TrROS] | -0.315 ± 0.29 | < -1
38 | SALEPGEWRKVTAEIPLPGGPLKLEIYEWPSNGHYYADIRNPGNGRPVEIPFPFDTPDDAVDEAKDFIRSAG [r14_65_TrROS] | 0.101 ± 0.4 | -0.625 ± 0.63
39 | SAGGSAGGSVIPFPGNSRIYVTEVREDGVKIKFPDIGTEITVPANVPINLVGNPTIGPDGTPYSAGGSAGGS [r20_105_TrMRF] | -0.946 ± 0.53 | < -1
40 | SAGSVTVEVFGPGRLLATYTLDDTTTTVAVPPEPVRVRIRSPGDDAEATADADPATGVVTVTVPADLGLSAG [r5_469_JUSTAS] | 0.679 ± 0.05 | 0.165 ± 0.064
41 | SAGGSAGGSMIVVPLERELDPSEPGLTKEEVKAILEAKGLDVVDIKVSTDPAKGLTRAVAKVKSAGGSAGGS [r12_1052_JUSTAS] | -0.851 ± 0.35 | < -1
42 | SAGGTIEEIRDQLKNMPPGYHVDLKIPNGRSHSFGSLEDIEDLPITNPNGRKIEITEVQPMPPPDEQSAGGS [r16_680_TrROS] | 0.195 ± 0.16 | -0.703 ± 0.68
43 | SAGGSAGGSAGGSWMRMEAEVRHPNKRDVTIPIPYRSKDGEPDMKERAKEFARELAKDYSAGGSAGGSAGGS [r4_168_TrROS] | -0.315 ± 0.21 | < -1
44 | SAGGSAGGSAGVKIRMRGPNGSESKIPVPPDAIQDKFPPGDPIRIPIHRHNNNFHMDIEPVSAGGSAGGSAG [r3_86_TrROS] | 0.353 ± 0.043 | -0.0674 ± 0.086
45 | SAGGSAGGSAGGPSSLLDGTPVELSVSPVEVNSVSTVTLPNGSTVPVSKKVKKTVVSVVASAGGSAGGSAGG [r7_90_JUSTAS] | 0.61 ± 0.075 | 0.23 ± 0.097
46 | SAGGSAGGSAGGMTETVTLTEVGVTTKTAPLPEGPLTTTPTVTVDRVITLPPSSPAALALSAGGSAGGSAGG [r7_889_JUSTAS] | -0.257 ± 0.42 | < -1
47 | SAGGSAGGSAGGPELPEDVPVVEVVHLDLPFSPDEPEVVEEAEAKAAALEEGGALAEIRRSAGGSAGGSAGG [r11_519_JUSTAS] | 0.728 ± 0.06 | 0.0364 ± 0.097

Source: the supplement of paper PMC12764529
